Data reported in patent US20150010566A1.

Key:
Assay in all cases: cell-based or functional assay
[1] = target: HA of H5N1 A/turkey/Turkey/05 virus (Influenza A virus H5N1 A/turkey/Turkey/05)
[2] = target: HA of Influenza H1N1 (A/Neth/602/2009), on infected MDCK cells or on virus (Influenza A virus H1N1 A/Neth/602/2009 (host Human))
[3] = target: HA of Influenza H3N2 (A/Swine/St. Oedenrode/1996), on infected MDCK cells or on virus (Influenza A virus H3N2 A/Swine/St. Oedenrode/1996 (host Swine))
[4] = target: HA of high pathogenic H7N7 (A/Ch/Neth/621557/03), on infected MDCK cells or on virus (Influenza A virus H7N7 A/Ch/Neth/621557/03 (host Chicken))
[5] = target: HA of low pathogenic H7N1 (A/Ch/Italy/1067/1999), on infected MDCK cells or on virus (Influenza A virus H7N1 A/Ch/Italy/1067/1999 (host Chicken))

Q: For CR8020 (antibody), which IC50, in vitro virus neutralization on MDCK cells [1] is on record?
A: The IC50, in vitro virus neutralization on MDCK cells was greater than 15 µg/mL.

Q: What about the IC50, in vitro virus neutralization on MDCK cells [2] of the same substance?
A: The IC50, in vitro virus neutralization on MDCK cells was greater than 15 µg/mL.

Q: What about the IC50, in vitro virus neutralization on MDCK cells [3] of the same substance?
A: Its IC50, in vitro virus neutralization on MDCK cells is greater than 15 µg/mL.

Q: What about the IC50, in vitro virus neutralization on MDCK cells [4] of the same substance?
A: Its IC50, in vitro virus neutralization on MDCK cells is 0.6 µg/mL.

Q: What about the IC50, in vitro virus neutralization on MDCK cells [5] of the same substance?
A: The IC50, in vitro virus neutralization on MDCK cells was greater than 15 µg/mL.
